According to PMC8511506 (Cell Reports, 2021):

T1: CYLD CAP-Gly3 L475P (aa 467-582) (human, UniProt Q9NQC7 467-582, L475P)
T1 construct: CYLD, human, third CAP-Gly domain, aa 467-582, with L475P; Isotope-labelled for NMR; also called pOPINS-CYLD 467-582 L475P; source: E. coli Rosetta2 (DE3) pLacI, purified (HisTrap, anion exchange, SEC)
T1 sequence (looked up): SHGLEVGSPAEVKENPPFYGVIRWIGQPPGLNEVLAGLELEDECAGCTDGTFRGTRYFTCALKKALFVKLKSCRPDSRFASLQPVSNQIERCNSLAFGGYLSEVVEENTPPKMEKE

B1: NEMO ZnF domain (aa 383-419) (domain or fragment, UniProt Q9Y6K9 383-419, looked up)
chain: SQRRSPPEEPPDFCCPKCQYQAPDMDTLQIHVMECIE
notes: NEMO/IKKγ, zinc finger domain, aa 383-419; Expression and purification of this construct are not described; also called NEMO/IKKγ; pOPINB-NEMO 383-419
B2: CYLD CAP-Gly3 (aa 460-582) (domain or fragment, human, UniProt Q9NQC7 460-582, looked up)
chain: LAMPPGNSHGLEVGSLAEVKENPPFYGVIRWIGQPPGLNEVLAGLELEDECAGCTDGTFRGTRYFTCALKKALFVKLKSCRPDSRFASLQPVSNQIERCNSLAFGGYLSEVVEENTPPKMEKE
notes: CYLD, human, third CAP-Gly domain with flanking residues, aa 460-582; 15N- or 15N,13C-labelled where it was the observed protein in NMR; also called pOPINS-CYLD 460-582; source: E. coli Rosetta2 (DE3) pLacI, purified (HisTrap, anion exchange, SEC)
B3: CYLD CAP-Gly2 (aa 226-313) (domain or fragment, human, UniProt Q9NQC7 226-313, looked up)
chain: ELPPLEINSRVSLKVGETIESGTVIFCDVLPGKESLGYFVGVDMDNPIGNWDGRFDGVQLCSFACVESTILLHINDIIPALSESVTQE
notes: CYLD, human, second CAP-Gly domain, aa 226-313; Isotope-labelled where it was the observed protein in NMR; also called pOPINS-CYLD 226-313; source: E. coli Rosetta2 (DE3) pLacI, purified (HisTrap, anion exchange, SEC)
B4: CYLD CAP-Gly3 (aa 467-552), crystal form 1 (domain or fragment, human, UniProt Q9NQC7 467-552, looked up)
chain: SHGLEVGSLAEVKENPPFYGVIRWIGQPPGLNEVLAGLELEDECAGCTDGTFRGTRYFTCALKKALFVKLKSCRPDSRFASLQPVS
notes: CYLD, human, third CAP-Gly domain extended C-terminally, aa 467-552 (the crystallisation methods say 465-552); also called CAP-Gly3 (467-552); source: E. coli Rosetta2 (DE3) pLacI, purified (HisTrap, anion exchange, SEC)
B5: CYLD CAP-Gly3 (aa 467-565), crystal form 2 (domain or fragment, human, UniProt Q9NQC7 467-565, looked up)
chain: SHGLEVGSLAEVKENPPFYGVIRWIGQPPGLNEVLAGLELEDECAGCTDGTFRGTRYFTCALKKALFVKLKSCRPDSRFASLQPVSNQIERCNSLAFGG
notes: also called CAP-Gly3 (467-565); source: E. coli Rosetta2 (DE3) pLacI, purified (HisTrap, anion exchange, SEC)

What was measured:
Settings in all cases: both partners purified
[1] = target: B2; experiment: NMR titration; isotope-labelled CAP-Gly domain or variant observed (BEST-TROSY, chemical shift perturbations), unlabelled partner added (Ub at 3-fold molar excess, or NEMO ZnF); 298 K; 20 mM Tris pH 7.4, 100 mM NaCl, 4 mM DTT
[2] = target: T1, CYLD CAP-Gly3 L475P (aa 467-582); experiment: as above
Ubiquitin [3] = target: T2, Ubiquitin (UniProt P0CG47 1-76); experiment: NMR titration; 15N-labelled Ub observed (BEST-TROSY, weighted chemical shift perturbations), unlabelled CAP-Gly domain added (3-fold molar excess for CAP-Gly3); 298 K; 20 mM Tris pH 7.4, 100 mM NaCl, 4 mM DTT
T2 construct: ubiquitin (mono-ubiquitin), the cut product of the ubiquitin precursors; 15N-labelled in the Ub-observed NMR experiments, unlabelled in ITC, crystallisation and the CAP-Gly-observed NMR

Ubiquitin [4] = target: T2, Ubiquitin; experiment: crystal structure; CAP-Gly3 co-crystallised with 1.1 molar excess of Ub, sitting-drop vapor diffusion; molecular replacement

Row | binding result (Ubiquitin [3]) | binding result (Ubiquitin [4]) | Binder | also measured
1 |  |  | B1 | binding result [1]: binds; binding result [2]: binds
2 | binds |  | B2 | 
3 | binds |  | B3 | 
4 |  | binds | B4 | 
5 |  | binds | B5 | 
